Results reported in the DeepSol protein solubility set.

Assay: soluble on expression in E. coli; label from the status in PepcDB or PDB records

Sequence | soluble on expression in E. coli
MSRPPPPRAASGAPLRPATVLGTMEMGRRMDASASAASVRAFLERGHSELDTAFMYCDGQSENILGGLGLGLGSGDCTVKIATKANPWEGKSLKPDSIRSQLETSLKRLQCPRVDLFYLHAPDHSTPVEETLCACHQLHQEGKFVELGLSNYASWEVAEICTLCKSNGWILPTVYQGMYNATTRQVEAELLPCLRHFGLRFYAYNPLAGGLLTGKYKYEDKDGKQPVGRFFGNNWAETYRNRFWKEHHFEAIALVEKALQTTYGTNAPRMTSAALRWMYHHSQLQGTRGDAVILGMSSLEQLEQNLAATEEGPLEPAVVEAFDQAWNMVAHECPNYFR | soluble
MSRPRKRLAGTSGSDKGLSGKRTKTENSGEALAKVEDSNPQKTSATKNCLKNLSSHWLMKSEPESRLEKGVDVKFSIEDLKAQPKQTTCWDGVRNYQARNFLRAMKLGEEAFFYHSNCKEPGIAGLMKIVKEAYPDHTQFEKNNPHYDPSSKEDNPKWSMVDVQFVRMMKRFIPLAELKSYHQAHKATGGPLKNMVLFTRQRLSIQPLTQEEFDFVLSLEEKGPSLEHHHHHH | not soluble
MSRRRHSDENDGGQPHKRRKTSDANETEDHLESLICKVGEKSACSLESNLEGLAGVLEADLPNYKSKILRLLCTVARLLPEKLTIYTTLVGLLNARNYNFGGEFVEAMIRQLKESLKANNYNEAVYLVRFLSDLVNCHVIAAPSMVAMFENFVSVTQEEDVPQVRRDWYVYAFLSSLPWVGKELYEKKDAEMDRIFANTESYLKRRQKTHVPMLQVWTADKPHPQEEYLDCLWAQIQKLKKDRWQERHILRPYLAFDSILCEALQHNLPPFTPPPHTEDSVYPMPRVIFRMFDYTDDPEGPVMPGSHSVERFVIEENLHCIIKSHWKERKTCAAQLVSYPGKNKIPLNYHIVEVIFAELFQLPAPPHIDVMYTTLLIELCKLQPGSLPQVLAQATEMLYMRLDTMNTTCVDRFINWFSHHLSNFQFRWSWEDWSDCLSQDPESPKPKFVREVLEKCMRLSYHQRILDIVPPTFSALCPANPTCIYKYGDESSNSLPGHSVALCLAVAFKSKATNDEIFSILKDVPNPNQDDDDDEGFSFNPLKIEVFVQTLLHLAAKSFSHSFSALAKFHEVFKTLAESDEGKLHVLRVMFEVWRNHPQMIAVLVDKMIRTQIVDCAAVANWIFSSELSRDFTRLFVWEILHSTIRKMNKHVLKIQKELEEAKEKLARQHKRRSDDDDRSSDRKDGVLEEQIERLQEKVESAQSEQKNLFLVIFQRFIMILTEHLVRCETDGTSVLTPWYKNCIERLQQIFLQHHQIIQQYMVTLENLLFTAELDPHILAVFQQFCALQA | soluble
MSRSRSAAASSSQKPDDMDLMSPDGSASSPSAPNTPATNSGGFSSDRKKATHLRCERQRREAINSGYSDLKDLIPQTTTSLGCKTTNAAILFRACDFMSQLKTDISDADKQLAQLNAQAAALEMIASEYEQMASSVPDAGQSTIQVKMLQLLLDDCFTSFSSQVDFTTYATITRTLLSWVESLAPNAEPFKSTAGKMVTMPFTSP | not soluble
MSRTIMLIPISAGVGLTSVSMGLLRAMERKGVSVSFYKPIAQPRTGDDQPDLTSTVMSRNSDIKIGQPMSMSAAETLIGSEKMDVLLETVVERYNQINKDAEVTLIEGLVPTRKHPFANQVNAEIANTLGAEIVFVATPGTDNPTQLKERIEVACSNFGGTKNKSISGVIINKLNAPVDEAGRTRPDLSEIFDDADHAKQANLEVMQIFNTSPIRVLGCVPWSIDLIATRAIDMAKHLKAE | not soluble
MSSAFLADRRLIRVSGTGAEEFLNNLITADIENLPEGETRASALLTPQGKILFDFLIWRDGRDYLVETGAAEQDALLRRLTMYKLRAPVELKAETVEGIGVFWGNSVTEAGVRDGRFAKAGVDLRRVPGASASGEAAAYEALRVEHGIAESGRDYALQDAFPHDVLMDVNDGVSFKKGCFVGQEVVSRMKHRGTARRRVVTVSADGTLPASGTEITANGKPVGALGTVYGNRALAIVRTDRVADALAAGTPLLADNVAVSVALPAWSGLSFPAADPAARAED | not soluble
MSSDANSDDPFSKPIVRKRFQATLAQQGIEDDQLPSVRSSDSPDVPDTPDVPVNQLSSPPLSLPETLSEGNAETNLSDDSEPEMLSQSSTSSLNRRMEDSAIDPSRGTRKSQSRGFDYDPAGERTTAPVQKKKKDEIDMGGAKFFPKQEKKHVYTHKWTTEEDDEDEKTISSSSNRYSSRPNQPAVSARPRQPVYATTSTYSKPLASGYGSRVRHIKEANELRESGEYDDFKQDLVYILSSLQSSDASMKVKCLSAISLAKKCVSPDFRQFIKSENMTKSIVKALMDSPEDDLFALAASTVLYLLTRDFNSIKIDFPSLRLVSQLLRIEKFEQRPEDKDKVVNMVWEVFNSYIEKQEVGGQKVSFDMRKESLTPSSLIIEALVFICSRSVNDDNLKSELLNLGILQFVVAKIETNVNLIADNADDTYSILILNRCFRILESSSVFHKKNQAFLISHRSNILISSLAKFLQVILDRVHQLAEEEVKKYISCLALMCRLLINISHDNELCCSKLGQIEGFLPNAITTFTYLAPKFGKENSYDINVMMTSLLTNLVERCNANRKVLIAQTVKMVIPGHDVEEVPALEAITRLFVYHESQAQIVDADLDRELAFDEGGCGDEEEEEEGGDESSDEDGVRKDGRLDRNKMDRMDQVDVVHALQQVMNKASAHMEGSVIASYHALLVGFVLQQNEDHLDEVRKHLPGKNFQNMISQLKRLYDFTKATMAKRVESNSGFRAIERVIEYLERLE | not soluble
MSSEEDKSVEQPQPPPPPPEEPGAPAPSPAAADKRPRGRPRKDGASPFQRARKKPRSRGKTAVEDEDSMDGLETTETETIVETAEIKEQSAEEDAEAEVDNSKQLIPTLQRSVSEESANSLVSVGVEAKISEQLCAFCYCGEKSSLGQGDLKQFRITPGFILPWRNQPSNKKDIDDNSNGTYEKMQNSAPRKQRGQRKERSPQQNIVSCVSVSTQTASDDQAGKLWDELSLVGLPDAIDIQALFDSTGTCWAHHRCVEWSLGVCQMEEPLLVNVDKAVVSGSTERCAFCKHLGATIKCCEEKCTQMYHYPCAAGAGTFQDFSHIFLLCPEHIDQAPERSKEDANCAVCDSPGDLLDQFFCTTCGQHYHGMCLDIAVTPLKRAGWQCPECKVCQNCKQSGEDSKMLVCDTCDKGYHTFCLQPVMKSVPTNGWKCKNCRICIECGTRSSSQWHHNCLICDNCYQQQDNLCPFCGKCYHPELQKDMLHCNMCKR | not soluble
MSSENAQLKKDLIKAVLSPLFPTATEGGENMDSNLKALLDAAIDQKVDESETVTAESILDPSLPARWIFARITPGTTISIVTDSGDMIGPVVFVAFDQVHGIVFVTQESSVTPAGQATTLIDVDKVESVTFFSLEHHHHHH | soluble
MSSERQLAGRIVVPGEPLPEEVEASPPYVIDYKGVKRATVVGLLREKGDGGGRAFVKLKEIYVPQAGDVVIGLIQSVGIMNWFVDINSPYVAVLSVQDFLGRPFNPAVDDMQSLLKVGDYIKAKVVAFDKTRSPLLTVQGEGLGRIVRGKIVEISPAKVPRVIGRKMSMLKTLEEKTECKIFVARNGRIHLECPNEDLEAIAVMAIKIIDEEAYTSGLTKRIIKFIEEERRIREV | soluble
MSSFVLDFQEIEKTQLSLVGGKGLNLGALSNMQGIQVPEGFCVTTAGYEKAIEQNEELQALLQQLTKLKREERVRIGEISKKIRENIMAVQIPSDVVEAVAHYLSRFGNEHAYAVRSSATAEDLPYASFAGQQDTYLNIIGENAILQHVRKCWASLFTDRAVMYRMQNGFEHNQVSICVVVQKMVFPQASGILFTADPITSNRKVLSIDASFGLGEALVSGLVSADNYKVKEGEIIDKMIATKKLAIYALKEGGTETKQNDPVQQKIQTLSDQQILQLVQIGRQIEAYFGCPQDIEWCLVDHTFYIVQSRPITTLYPIPEENDEGNHVYISVGHQQMMTDAMKPLGLSFFLLTTNAPMRKAGGRLFVDATQQLVLPASRDYLINTLGKSDPLVRDALTTIIERDDFITLLPDEEKEKSASKSKPPVSSQPEIENDPAIVTELIRNSEASLEELKQNMQLKSGVDVFDFILEDIQQLKKVLFNPQSIAVIMAGMNASTWINEKMEQWLGEKNAADMLSQSVQNNITSEMGLALMDVADAIRPYPEVITYLQHVEDDSFLDELVQYKGGEKARDTIVAFLNKYGMRCSGEIDITKTRWSEKPTTIIPMILNNIRDFEAGASKQKFEKGLQEALNKEEELLDRLQHLPKGKQKVEETKRMIRNIRNFIGYREYPKYGMINRYFIYKQALLKEAEQLVQSGVICEVDDIYYLTFEELHEVVRTNKLDYELIQKQKNDYKLYEKLTPPRVMTSDGEIITGKYKRENLPADAIVGLPVSSGVVEGRARVILNMEEANLEEGDILVTAFTDPGWTPLFVSIKGLVTEVGGLMTHGAVIAREYGLPAVVGVENATKRIKDGQRIRVHGTEGYIEML | not soluble
MSSGSSNFLLVPIPEYPVLDCVPNKNVKIVVLGASNVGKTALIVRFLTKRFIGDYEANTGALYSRKINLDGEQVSLQVQDTPCVSLQDDADGLYCQEQINRSITGRTVMCSSSPSLTSTATAPSSLSTNMCAESTPAVTSLSSSWETRATFCEPDRSQIPKGRRWRMNWEGYTLRLRPGRTTRASRQLFCTYVRR | not soluble
MSSHFVDWLIAHGYEQDAFDRPDVGPAGSFGGKTRSGDPVEKEPVIFIHGSGDTALFTQQPLATGFSRSIQYFLEQNYTEAELYATTWGDTWGSGSMLDTYSTIHTCGNLIYLRRFLEAVIGYTGAKKVDIIAHSVGVPLMRKVVKGGTLIGTDGNCTLGPPLGAKVDTFLGIAGPNFGLCVCQLAQTVPAWCNALDGLYPGYTCQDQLWCGYTSGSCKQENYSNLLQKTNDDPNREGDHVYAMWSDVDEVLLNRGMVWGKPTARIPGMNGRWISDRNGHVAMKDLTELRQFEAIVHHSI | not soluble
MSSIGTGYDLAASTFSPDGRIFQVEYAQKAVDNAGTMIAIRGKNGVVVVADKLISSKLYTDNANPRMFNVNDNVGVAVAGNYPDGFALKNYAYGEAMKWLKDYREPMPIQNIANSVAEYIHIHTLGISRPFGAGAFFMSWNKQTGGRLFLVEPSGLNYEYKAWAVGKHRQAAKAEIEKLKIEELDVNQLVKEAARIIMVVRDENKDKNVQIEMGWVGEQTNGKYEEVPSEVVTAAEEWAIAKLDEDDMDD | not soluble
MSSKNTAEVILGGKVIKLGGYESEEYLQRVASYINNKITEFNKEESYRRMSAELRTDMMYLNIADDYFKAKKMADSLSLDIENKDKEIYDLKHELIAAQIKAESSAKEIKELKSEINKYQKNIVKLETELNDSKK | soluble
MSSLARGISRRRTEVATQVEAAPTGLRPNAVVGVRLAALADQVGAALAEGPAQRAVTEDRTVTGVTLRAQDVSPGDLFAALTGSTTHGARHVGDAIARGAVAVLTDPAGVAEIAGRAAVPVLVHPAPRGVLGGLAATVYGHPSERLTVIGITGTSGKTTTTYLVEAGLRAAGRVAGLIGTIGIRVGGADLPSALTTPEAPTLQAMLAAMVERGVDTVVMEVSSHALALGRVDGTRFAVGAFTNLSRDHLDFHPSMADYFEAKASLFDPDSALRARTAVVCIDDDAGRAMAARAADAITVSAADRPAHWRATDVAPTDAGGQQFTAIDPAGVGHHIGIRLPGRYNVANCLVALAILDTVGVSPEQAVPGLREIRVPGRLEQIDRGQGFLALVDYAHKPEALRSVLTTLAHPDRRLAVVFGAGGDRDPGKRAPMGRIAAQLADLVVVTDDNPRDEDPTAIRREILAGAAEVGGDAQVVEIADRRDAIRHAVAWARPGDVVLIAGKGHETGQRGGGRVRPFDDRVELAAALEALERRA | soluble
MSSNAQAIAGLEDRSAIPPTALKATLDHRLGEAAPSDYAKTLLASADAPTLRHLLGLGDAAVMDTGSGKNLDADLLDGYHGTYYLQWRNLQNTPQTYPPSAHQHASSDIPELASQLDTLVKKTGSLMTGSLQSQGTLIGDALGNGRIPALKIGNDCEFWDNNIPYAATFRSGTSPAIAQLFFGTSNHCYFGTSTKNTSTVIGAKTGLLWIETAGNYYYQQHDTTHVAFYKKNGGHAFFWRRSDSGGSGSTNEVQLMALEDNGNLSVKGTIVSAGGYAQGSSRKLKDIEGPLPYGLAEIEQLTPLIGRYKPSYTPDGRRRLFLEAEQLLDLMPETVNPEGIPFQGAYVPSVNLDQLLPVLVNAIAQLSAKVNALTDAPRHAEKLEHHHHHH | not soluble
